Measurements as given in publication doi:10.1101/2021.05.01.442157.
pKd: −log10 of the molar value.

Molecular target: amyloid β precursor-like protein 1 (Aplp1), on transfected SH-SY5Y cells (UniProt Q03157)
Test: cell surface-binding assay

UniProt Q03157, sequence (Q03157 39-654): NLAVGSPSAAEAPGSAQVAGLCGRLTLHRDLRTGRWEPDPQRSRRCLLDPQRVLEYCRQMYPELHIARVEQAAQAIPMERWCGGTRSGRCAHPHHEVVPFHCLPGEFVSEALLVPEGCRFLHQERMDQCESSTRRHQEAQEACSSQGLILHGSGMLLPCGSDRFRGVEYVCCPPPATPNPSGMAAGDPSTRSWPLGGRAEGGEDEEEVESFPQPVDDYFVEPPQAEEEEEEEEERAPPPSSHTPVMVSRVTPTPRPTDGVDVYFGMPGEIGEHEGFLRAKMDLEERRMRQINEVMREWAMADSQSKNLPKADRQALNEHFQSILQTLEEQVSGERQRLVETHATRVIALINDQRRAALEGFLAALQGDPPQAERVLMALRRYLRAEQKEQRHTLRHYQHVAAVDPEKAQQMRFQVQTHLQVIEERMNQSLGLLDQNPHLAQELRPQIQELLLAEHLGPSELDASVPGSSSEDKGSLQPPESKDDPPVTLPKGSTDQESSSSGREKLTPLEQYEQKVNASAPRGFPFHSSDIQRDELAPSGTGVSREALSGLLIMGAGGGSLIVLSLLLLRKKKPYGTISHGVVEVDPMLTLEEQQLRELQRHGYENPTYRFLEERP

pKd: < 5.52
Substance: β-amyloid-biotin PFF (peptide)
